The supplement of paper PMC9732359
± gives the uncertainty stated by the source.

Assay: protein stability index of a GFP-peptide fusion (yeast GPS) (PSI 1-4); higher = more stable; sorted into four equal gates, so the index is relative within each strain
Method in brief: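 Yeast carrying a pooled library were grown to mid-log phase in leucine-free medium. Each library plasmid expresses Cherry and has a tiled 17-residue yeast protein peptide fused downstream of GFP. Cells were sorted into four equal gates by GFP/Cherry ratio, and plasmids from each gate were PCR-amplified, Illumina-sequenced and assigned to strains by barcode. Summing, across gates, the read frequency times the gate number gave each peptide's protein stability index.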

Sequence | protein stability index (doa10∆) | protein stability index (pdr5∆) | protein stability index (san1∆) | protein stability index (ubr1∆)
ITVVPVVAAAEDDDNEQ [QCR6] | 1.61 ± 0.068 | 2.04 ± 0.064 | 1.72 ± 0.12 | 1.89 ± 0.036
QIQQQQQKQQQQQQQHQ [SNF5] | 2.53 ± 0.12 | 2.97 ± 0.14 | 2.93 ± 0.12 | 2.61 ± 0.22
RKANREEKLKANKEKKR [RPL24B] | 2.86 ± 0.074 | 1.96 ± 0.065 | 2.12 ± 0.087 | 2.27 ± 0.053
NTEITQKSSKENIENEE [ECM29] | 3.05 ± 0.082 | 3.28 ± 0.087 | 2.76 ± 0.078 | 2.94 ± 0.09
EDEEEEEEVTDQLEDLR [QCR6] | – | 3.52 ± 0.28 | 3.47 ± 0.083 | 3.25 ± 0.089
PLVAHLGLYVGVDDQIL [YJL039C/NUP192] | 2.42 ± 0.074 | 2.85 ± 0.12 | 2.26 ± 0.11 | 1.48 ± 0.13
CARFLGNRGFSIGINDV [RPO31] | 2.32 ± 0.21 | – | – | 2.88 ± 0.21
IKGIREYEEWQKSVSLL [YDL116W/NUP84] | 2.08 ± 0.14 | 2.66 ± 0.12 | 2.5 ± 0.17 | 2.55 ± 0.095
QDKDAIRKQPDDIINND [SIR2] | 2.48 ± 0.089 | 2.63 ± 0.049 | 2.82 ± 0.078 | 2.89 ± 0.061
ARIVRVRSREDRKNRAP [RPS26A] | 3.55 ± 0.23 | – | 3.27 ± 0.26 | 2.87 ± 0.099
GNKKYRALRIETGNFSW [RPS8A] | 2.87 ± 0.038 | 3.15 ± 0.044 | 3.14 ± 0.036 | 2.85 ± 0.03
LSATQFTQPALTLMEKA [FAS1] | 2.37 ± 0.073 | 2.56 ± 0.058 | 2.7 ± 0.049 | 2.58 ± 0.054
LLFNNDFPLLKVLAAHT [RRP40] | 1.23 ± 0.13 | 1.25 ± 0.11 | 1.18 ± 0.12 | 1.09 ± 0.058
ALENDVATNIVNEDPIF [YML103C/NUP188] | 2.94 ± 0.051 | 3.1 ± 0.068 | 3.04 ± 0.052 | 3.05 ± 0.048
QRKTNGASNGDDSNGGN [BRN1] | 3.12 ± 0.14 | 2.92 ± 0.23 | 3.71 ± 0.17 | 3.64 ± 0.15
LKQHNQNNLPPNFFLTL [BRR2] | 2.81 ± 0.064 | 3.07 ± 0.069 | 2.84 ± 0.069 | 2.94 ± 0.071
AQLAKAKTELNEVSLAI [SMC2] | 3 ± 0.077 | 2.75 ± 0.074 | 1.82 ± 0.097 | 2.61 ± 0.046
TIISPHKDIPEEDFYTV [DSN1] | 3.21 ± 0.095 | 3.23 ± 0.15 | 2.44 ± 0.28 | 3.19 ± 0.054
LIAEESEDDSESGKVFI [RPB2] | 3.03 ± 0.23 | 3.63 ± 0.29 | 3.48 ± 0.29 | –
SRMFEEVSGSIQYKKEY [SMC1] | 3.09 ± 0.057 | 2.02 ± 0.06 | 2.37 ± 0.075 | 3.21 ± 0.057
ARRTLQKLGLDETYKGV [RPL5] | – | 2.97 ± 0.18 | 3.43 ± 0.14 | –
STNGLGMCQLYFWHKIW [SNU114] | – | 1.24 ± 0.24 | 2.56 ± 0.21 | –
GHNDWVSQVRVVPNEKA [ASC1] | 2.3 ± 0.1 | 2.85 ± 0.076 | 2.94 ± 0.066 | 2.69 ± 0.065
QYESQAPDGSASISLPN [SWP82] | 2.97 ± 0.055 | 2.61 ± 0.05 | 2.92 ± 0.038 | 2.83 ± 0.029
PDLQFIVISLKNTMFEK [SMC1] | 2.83 ± 0.082 | 2.68 ± 0.071 | 3.01 ± 0.05 | 2.77 ± 0.045

Sequence | protein stability index (doa10∆) | protein stability index (pdr5∆) | protein stability index (san1∆) | protein stability index (ubr1∆)
ASYAKYLIDHIKVEGAV [RPL22A] | 2.95 ± 0.17 | 3.13 ± 0.15 | 2.85 ± 0.092 | 3.23 ± 0.11
VLKVDKRFMNTSQNPQR [BRR2] | 3 ± 0.056 | 3.2 ± 0.06 | 3.21 ± 0.069 | 2.99 ± 0.04
LNIDWSTTGDNGELDLS [MED2] | 2.2 ± 0.057 | 2.48 ± 0.058 | 2.13 ± 0.079 | 2.28 ± 0.044
NENPINKIMTNQINSFW [NUT1] | 2.5 ± 0.065 | 2.66 ± 0.064 | 2.43 ± 0.054 | 2.9 ± 0.042
LSHGSLEHVLLVPTASF [FAS1] | 1.24 ± 0.039 | 1.4 ± 0.043 | 1.33 ± 0.079 | 1.19 ± 0.029
GIKVLPETCLFVSYFGK [YML103C/NUP188] | 2.7 ± 0.055 | 2.42 ± 0.038 | 2.44 ± 0.074 | 2.68 ± 0.039
FQEGVVVAKKDFNQAKH [RPS10A] | 2.1 ± 0.27 | 2.92 ± 0.27 | 2.91 ± 0.16 | 2.79 ± 0.12
LLVERLKEDDSSLYEAS [RPN1] | 3.22 ± 0.12 | 3.38 ± 0.12 | 3.06 ± 0.1 | 3.16 ± 0.18
VKIVDKDGIRQVDDFQA [PRE1] | 2.86 ± 0.14 | 2.9 ± 0.11 | – | –
HTQANEPNSAKKIRFLQ [RGR1] | 2.98 ± 0.24 | 3.51 ± 0.11 | 3.12 ± 0.22 | 3.33 ± 0.18
KAKRSNLYTPKAEMPPE [PRP8] | 2.98 ± 0.084 | 3.05 ± 0.081 | 2.84 ± 0.063 | 2.89 ± 0.077
QDKIELSEEETLLVIRR [SNF2] | 2.38 ± 0.11 | 2.27 ± 0.11 | 2.92 ± 0.072 | 2.98 ± 0.089
EDMIRSVFDATSDPVMH [RPN1] | – | – | 3.15 ± 0.23 | –
RMRNRALREMRKSDQQD [POP1] | 3.61 ± 0.13 | 3.63 ± 0.17 | 3.23 ± 0.11 | 3.13 ± 0.13
SEEVDDLSMVPKMKDEE [SNF2] | 2.78 ± 0.17 | – | 3.29 ± 0.12 | 3.59 ± 0.22
ELVTISWVQPRIISGDQ [RPN9] | 2.44 ± 0.12 | 1.96 ± 0.087 | 2.27 ± 0.12 | 2.98 ± 0.1
MSDAVTIRTRKVISNPL [RPS24A] | 2.78 ± 0.23 | 2.69 ± 0.13 | 2.97 ± 0.13 | 2.23 ± 0.14
FDKVEVQVRSVMDPITS [DIS3] | 2.78 ± 0.07 | 2.8 ± 0.066 | 3.21 ± 0.053 | 3.04 ± 0.064
DTFYMNVESVGSIPVDQ [RPB3] | 2.9 ± 0.075 | 2.43 ± 0.056 | 2.67 ± 0.078 | 2.2 ± 0.12
WSFYNGNVLINDTLPDE [SNU114] | – | 2.23 ± 0.16 | – | 1.7 ± 0.16
EAASITRKSLNNAVRFS [ECM29] | 2.59 ± 0.081 | 2.88 ± 0.084 | 2.86 ± 0.055 | 2.97 ± 0.048
PEHLRKIINTHSDMASK [PRP8] | 2.01 ± 0.053 | 2.04 ± 0.051 | 2.15 ± 0.097 | 2.37 ± 0.039
TNPSSIFGGAGGVPTTS [YOR098C/NUP1] | 1.72 ± 0.066 | 2.36 ± 0.076 | 2.15 ± 0.086 | 1.59 ± 0.053
KDNAKISNNLALVFAAL [SRP68] | 2.24 ± 0.051 | 1.86 ± 0.038 | 1.97 ± 0.066 | 2.17 ± 0.04
LPFQRLVREIAQDFKTD [HHT1] | 1.93 ± 0.066 | 2.48 ± 0.061 | 2.48 ± 0.073 | 2.35 ± 0.074

Sequence | protein stability index (doa10∆) | protein stability index (pdr5∆) | protein stability index (san1∆) | protein stability index (ubr1∆)
LDERFASRVALNKEKLG [IRR1] | 1.27 ± 0.057 | 1.52 ± 0.1 | 1.57 ± 0.18 | 1.55 ± 0.087
NNNGNSAASKKKKNKNK [SRP21] | 3.09 ± 0.092 | 3 ± 0.12 | 3.15 ± 0.057 | 3.14 ± 0.057
LAPELNQAIWKRGVKGV [RPL31A] | – | 2.04 ± 0.22 | – | 1.57 ± 0.19
SQKQTLIKKPLTVFYAI [SSN3] | 2.1 ± 0.089 | 2.13 ± 0.061 | 2.12 ± 0.085 | 2.01 ± 0.057
FPFVLKVDNDLRIELQS [SRB8] | 2.98 ± 0.12 | 3.05 ± 0.1 | 2.61 ± 0.098 | 3.31 ± 0.14
EGMFANANRVFRTRFQD [SMC2] | 2.26 ± 0.097 | 1.76 ± 0.089 | 2.68 ± 0.25 | 2.31 ± 0.078
NANTVFSERAAMFAALQ [SWI1] | 2.31 ± 0.049 | 2.32 ± 0.043 | 2.4 ± 0.055 | 2.38 ± 0.032
TMGMRALLKLSVKLKQK [DIS3] | 1.28 ± 0.059 | 1.59 ± 0.063 | 1.21 ± 0.072 | 1.33 ± 0.07
TQARVITGNKIMRILKS [RPS13] | 1.41 ± 0.17 | 1.24 ± 0.081 | 1.18 ± 0.12 | 1.1 ± 0.079
SEQKMKEDADLKRMEIL [SIR4] | 2.99 ± 0.066 | 3.34 ± 0.11 | 3.49 ± 0.059 | 3.28 ± 0.073
IKLGSTAIGIATKEGVV [PUP2] | 1.54 ± 0.11 | 1.63 ± 0.18 | 1.34 ± 0.26 | 1.32 ± 0.11
YAIKKKDELERVAKSNR [RPS5] | 3.41 ± 0.061 | 3.35 ± 0.073 | 3.44 ± 0.043 | 3.23 ± 0.068
RLQAKRLKDVEWVKLHR [RMP1] | 2.97 ± 0.069 | 3.09 ± 0.076 | 3.15 ± 0.056 | 2.03 ± 0.062
TTFTHCEIHPSMILGVA [RPB2] | 1.75 ± 0.11 | 2.39 ± 0.075 | 1.3 ± 0.14 | 2.57 ± 0.098
AYKFEEVSKDLIAVYYS [RPB8] | 2.94 ± 0.071 | 3.14 ± 0.067 | 3.32 ± 0.045 | 3.11 ± 0.055
NTFQKTVEPVYQMHIKT [FAS1] | 1.68 ± 0.038 | 1.78 ± 0.046 | 1.58 ± 0.062 | 1.5 ± 0.059
MENTLGEGSTVNASVDV [SWI3] | – | – | – | 3.54 ± 0.21
YLHDNASKVLLKIFLYL [IRR1] | 1.92 ± 0.099 | 1.64 ± 0.075 | 1.42 ± 0.093 | 1.77 ± 0.053
NDITNLQLSKTPLSIKI [SRB8] | 2.58 ± 0.062 | 2.52 ± 0.069 | 2.81 ± 0.056 | 2.77 ± 0.051
SFGNREEFINKLVKAMN [RPL7B] | 2.03 ± 0.13 | 1.94 ± 0.17 | – | 2.75 ± 0.073
HIEKLENEFVVLLDARD [CDC53] | 3.35 ± 0.088 | 3.05 ± 0.081 | 2.9 ± 0.14 | 3.27 ± 0.091
DQIEKLREVVELPLLSP [RPT1] | 2.76 ± 0.075 | 3 ± 0.054 | 2.87 ± 0.061 | 2.94 ± 0.073
YNNRKCWPKDSRMRLIR [PRP8] | 2.05 ± 0.09 | 2.13 ± 0.12 | 2.19 ± 0.11 | 2.64 ± 0.14
ETSSDGSKSDGSAATSG [RPN1] | 3.39 ± 0.053 | 3.4 ± 0.055 | 3.62 ± 0.048 | 3.3 ± 0.036
